One block for each binder: values may come before it.
Tests used:
4H477-bN = target: T1, 4H477-bN; assay: two-hybrid library CCNG1;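 note: natural log of median RNA to DNA barcode read ratio; higher means stronger binding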
T1 chain: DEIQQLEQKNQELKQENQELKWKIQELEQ

4H319-bN = target: T2, 4H319-bN; assay: two-hybrid library CCNG1;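 note: natural log of median RNA to DNA barcode read ratio; higher means stronger binding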
T2 chain: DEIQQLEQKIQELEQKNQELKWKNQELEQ

4H741-bN = target: T3, 4H741-bN; assay: two-hybrid library CCNG1;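 note: natural log of median RNA to DNA barcode read ratio; higher means stronger binding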
T3 chain: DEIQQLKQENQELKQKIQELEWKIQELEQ

4H40-bN = target: T4, 4H40-bN; assay: two-hybrid library CCNG1;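 note: natural log of median RNA to DNA barcode read ratio; higher means stronger binding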
T4 chain: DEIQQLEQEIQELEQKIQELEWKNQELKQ

4H2438-bN = target: T5, 4H2438-bN; assay: two-hybrid library CCNG1;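 note: natural log of median RNA to DNA barcode read ratio; higher means stronger binding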
T5 chain: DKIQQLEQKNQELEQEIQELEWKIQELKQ

4H2692-bN = target: T6, 4H2692-bN; assay: two-hybrid library CCNG1;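 note: natural log of median RNA to DNA barcode read ratio; higher means stronger binding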
T6 chain: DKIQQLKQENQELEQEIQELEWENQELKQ

4H2223-bN = target: T7, 4H2223-bN; assay: two-hybrid library CCNG1
T7 chain: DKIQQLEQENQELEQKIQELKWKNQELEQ

4H3057-bN = target: T8, 4H3057-bN; assay: two-hybrid library CCNG1
T8 chain: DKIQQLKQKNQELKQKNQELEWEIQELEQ

4H2473-bN = target: T9, 4H2473-bN; assay: two-hybrid library CCNG1
T9 chain: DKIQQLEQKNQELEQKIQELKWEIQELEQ

4H2915-bN = target: T10, 4H2915-bN; assay: two-hybrid library CCNG1
T10 chain: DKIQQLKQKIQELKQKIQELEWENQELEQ

4H2503-bN = target: T11, 4H2503-bN; assay: two-hybrid library CCNG1
T11 chain: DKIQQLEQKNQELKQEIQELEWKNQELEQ

4H492-bN = target: T12, 4H492-bN; assay: two-hybrid library CCNG1
T12 chain: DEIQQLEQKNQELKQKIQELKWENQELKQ

4H3381-bH = target: T13, 4H3381-bH; assay: two-hybrid library CCNG1
T13 chain: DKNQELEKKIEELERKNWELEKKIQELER

4H3277-bN = target: T14, 4H3277-bN; assay: two-hybrid library CCNG1
T14 chain: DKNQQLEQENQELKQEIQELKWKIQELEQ

4H2588-bN = target: T15, 4H2588-bN; assay: two-hybrid library CCNG1
T15 chain: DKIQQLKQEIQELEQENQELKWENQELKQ

4H2717-bN = target: T16, 4H2717-bN; assay: two-hybrid library CCNG1
T16 chain: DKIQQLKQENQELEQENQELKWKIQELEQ

4H2839-bN = target: T17, 4H2839-bN; assay: two-hybrid library CCNG1
T17 chain: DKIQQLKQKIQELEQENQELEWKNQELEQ

P5A-bP = target: T18, P5A-bP; assay: two-hybrid library CCNG1
T18 chain: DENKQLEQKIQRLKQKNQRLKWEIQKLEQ

P8A-bP = target: T19, P8A-bP; assay: two-hybrid library CCNG1
T19 chain: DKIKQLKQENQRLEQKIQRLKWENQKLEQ

P7A-bP = target: T20, P7A-bP; assay: two-hybrid library CCNG1
T20 chain: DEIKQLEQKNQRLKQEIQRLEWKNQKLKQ

P3A-bP = target: T21, P3A-bP; assay: two-hybrid library CCNG1
T21 chain: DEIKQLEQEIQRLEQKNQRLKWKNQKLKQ

P2A-bP = target: T22, P2A-bP; assay: two-hybrid library CCNG1
T22 chain: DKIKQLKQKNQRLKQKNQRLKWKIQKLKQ

P6A-bP = target: T23, P6A-bP; assay: two-hybrid library CCNG1
T23 chain: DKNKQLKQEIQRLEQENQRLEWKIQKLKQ

P4A-bP = target: T24, P4A-bP; assay: two-hybrid library CCNG1
T24 chain: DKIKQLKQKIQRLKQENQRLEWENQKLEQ

P9A-bP = target: T25, P9A-bP; assay: two-hybrid library CCNG1
T25 chain: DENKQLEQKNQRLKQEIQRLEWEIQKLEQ

4H478-AA = target: T26, 4H478-AA; assay: two-hybrid library CCmax; conditions: mean of both orientations
T26 chain: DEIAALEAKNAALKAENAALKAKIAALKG

4H1391-AA = target: T27, 4H1391-AA; assay: two-hybrid library CCmax
T27 chain: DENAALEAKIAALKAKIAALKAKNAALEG

4H2948-AA = target: T28, 4H2948-AA; assay: two-hybrid library CCmax; conditions: mean of both orientations
T28 chain: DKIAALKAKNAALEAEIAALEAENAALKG

4H391-AA = target: T29, 4H391-AA; assay: two-hybrid library CCmax; conditions: mean of both orientations
T29 chain: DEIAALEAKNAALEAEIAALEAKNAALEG

4H3446-AA = target: T30, 4H3446-AA; assay: two-hybrid library CCmax
T30 chain: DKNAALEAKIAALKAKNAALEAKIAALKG

4H189-AA = target: T31, 4H189-AA; assay: two-hybrid library CCmax; conditions: mean of both orientations
T31 chain: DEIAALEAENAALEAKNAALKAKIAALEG

4H3591-AA = target: T32, 4H3591-AA; assay: two-hybrid library CCmax; conditions: mean of both orientations
T32 chain: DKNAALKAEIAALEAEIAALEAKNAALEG

4H1348-AA = target: T33, 4H1348-AA; assay: two-hybrid library CCmax; conditions: mean of both orientations
T33 chain: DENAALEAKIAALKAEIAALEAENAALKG

4H3628-AA = target: T34, 4H3628-AA; assay: two-hybrid library CCmax; conditions: mean of both orientations
T34 chain: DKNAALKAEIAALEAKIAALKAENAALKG

4H2991-AA = target: T35, 4H2991-AA; assay: two-hybrid library CCmax; conditions: mean of both orientations
T35 chain: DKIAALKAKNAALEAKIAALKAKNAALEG

4H2713-AA = target: T36, 4H2713-AA; assay: two-hybrid library CCmax; conditions: mean of both orientations
T36 chain: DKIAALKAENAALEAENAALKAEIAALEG

4H3709-AA = target: T37, 4H3709-AA; assay: two-hybrid library CCmax; conditions: mean of both orientations
T37 chain: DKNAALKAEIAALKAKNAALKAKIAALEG

4H497-AA = target: T38, 4H497-AA; assay: two-hybrid library CCmax; conditions: mean of both orientations
T38 chain: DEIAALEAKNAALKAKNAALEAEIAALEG

4H3666-AA = target: T39, 4H3666-AA; assay: two-hybrid library CCmax; conditions: mean of both orientations
T39 chain: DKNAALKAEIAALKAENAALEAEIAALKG

4H656-AA = target: T40, 4H656-AA; assay: two-hybrid library CCmax; conditions: mean of both orientations
T40 chain: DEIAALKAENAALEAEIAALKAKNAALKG

4H1809-AA = target: T41, 4H1809-AA; assay: two-hybrid library CCmax; conditions: mean of both orientations
T41 chain: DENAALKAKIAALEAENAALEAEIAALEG

4H146-AA = target: T42, 4H146-AA; assay: two-hybrid library CCmax; conditions: mean of both orientations
T42 chain: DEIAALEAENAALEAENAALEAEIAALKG

4H675-AA = target: T43, 4H675-AA; assay: two-hybrid library CCmax; conditions: mean of both orientations
T43 chain: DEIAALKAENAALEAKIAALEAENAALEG

4H2283-AA = target: T44, 4H2283-AA; assay: two-hybrid library CCmax; conditions: mean of both orientations
T44 chain: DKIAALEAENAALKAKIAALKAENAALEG

4H1146-AA = target: T45, 4H1146-AA; assay: two-hybrid library CCmax
T45 chain: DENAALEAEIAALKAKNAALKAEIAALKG

4H428-AA = target: T46, 4H428-AA; assay: two-hybrid library CCmax; conditions: mean of both orientations
T46 chain: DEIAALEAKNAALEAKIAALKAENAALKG

4H2248-AA = target: T47, 4H2248-AA; assay: two-hybrid library CCmax; conditions: mean of both orientations
T47 chain: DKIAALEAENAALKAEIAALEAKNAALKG

4H3920-AA = target: T48, 4H3920-AA; assay: two-hybrid library CCmax; conditions: mean of both orientations
T48 chain: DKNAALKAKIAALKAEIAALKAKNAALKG

4H3102-AA = target: T49, 4H3102-AA; assay: two-hybrid library CCmax; conditions: mean of both orientations
T49 chain: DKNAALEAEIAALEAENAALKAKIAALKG

4H3029-AA = target: T50, 4H3029-AA; assay: two-hybrid library CCmax; conditions: mean of both orientations
T50 chain: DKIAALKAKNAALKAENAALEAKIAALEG

4H3417-AA = target: T51, 4H3417-AA; assay: two-hybrid library CCmax; conditions: mean of both orientations
T51 chain: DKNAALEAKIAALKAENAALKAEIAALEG

4H3066-AA = target: T52, 4H3066-AA; assay: two-hybrid library CCmax; conditions: mean of both orientations
T52 chain: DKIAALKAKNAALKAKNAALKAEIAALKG

4H1854-AA = target: T53, 4H1854-AA; assay: two-hybrid library CCmax; conditions: mean of both orientations
T53 chain: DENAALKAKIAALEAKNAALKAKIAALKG

4H971-AA = target: T54, 4H971-AA; assay: two-hybrid library CCmax; conditions: mean of both orientations
T54 chain: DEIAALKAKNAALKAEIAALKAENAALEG

4H2742-AA = target: T55, 4H2742-AA; assay: two-hybrid library CCmax; conditions: mean of both orientations
T55 chain: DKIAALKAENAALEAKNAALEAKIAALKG

4H3939-AA = target: T56, 4H3939-AA; assay: two-hybrid library CCmax; conditions: mean of both orientations
T56 chain: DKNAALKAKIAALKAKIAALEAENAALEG

4H3121-AA = target: T57, 4H3121-AA; assay: two-hybrid library CCmax; conditions: mean of both orientations
T57 chain: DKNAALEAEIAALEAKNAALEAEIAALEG

- interaction score (4H477-bN): -1.55
- interaction score (4H319-bN): -0.943
- interaction score (4H741-bN): -0.691
- interaction score (4H40-bN): -0.775
- interaction score (4H2438-bN): -0.0421
- interaction score (4H2692-bN): -0.818
- interaction score (4H2223-bN): 0.483
- interaction score (4H3057-bN): -0.362
- interaction score (4H2473-bN): -0.941
- interaction score (4H2915-bN): -1.33
- interaction score (4H2503-bN): 1.04
- interaction score (4H492-bN): 0.539
- interaction score (4H3381-bH): 0.0621
- interaction score (4H3277-bN): -0.393
- interaction score (4H2588-bN): 0.654
- interaction score (4H2717-bN): -2.14
- interaction score (4H2839-bN): -0.721
Binder: DKIQQLEQENQELEQKIQELKWKNQELEQ [4H2223-bN]

- interaction score (P5A-bP): -1.71
- interaction score (P8A-bP): -0.672
- interaction score (P7A-bP): -2.54
- interaction score (P3A-bP): -1.2
- interaction score (P2A-bP): 0.0236
- interaction score (P6A-bP): -0.533
- interaction score (P4A-bP): -1.81
- interaction score (P9A-bP): -0.913
Binder: DKIKQLKQKNQRLKQKNQRLKWKIQKLKQ [P2A-bP]

- interaction score (4H478-AA): -1.22
- interaction score (4H1391-AA): -1.56
- interaction score (4H2948-AA): -0.764
- interaction score (4H391-AA): -1.21
- interaction score (4H3446-AA): 0.452
- interaction score (4H189-AA): -1.57
- interaction score (4H3591-AA): -0.991
- interaction score (4H1348-AA): -1.15
- interaction score (4H3628-AA): -1.65
- interaction score (4H2991-AA): -0.0174
- interaction score (4H2713-AA): -0.725
- interaction score (4H3709-AA): -0.436
- interaction score (4H497-AA): -1.98
- interaction score (4H3666-AA): 2.01
- interaction score (4H656-AA): 1.71
- interaction score (4H1809-AA): 2.05
- interaction score (4H146-AA): 0.0699
- interaction score (4H675-AA): 0.0108
- interaction score (4H2283-AA): -0.542
- interaction score (4H1146-AA): -0.0838
- interaction score (4H428-AA): -0.861
- interaction score (4H2248-AA): -0.598
- interaction score (4H3920-AA): -1.58
- interaction score (4H3102-AA): 0.627
- interaction score (4H3029-AA): -1.14
- interaction score (4H3417-AA): 0.618
- interaction score (4H3066-AA): -1.53
- interaction score (4H1854-AA): -0.715
- interaction score (4H971-AA): -0.562
- interaction score (4H2742-AA): -1.39
- interaction score (4H3939-AA): -1.69
- interaction score (4H3121-AA): -0.198
Binder: DENAALEAEIAALKAKNAALKAEIAALKG [4H1146-AA]

Reference: paper PMC10397247
